System: O=S(O)(O)=S
Experiment: purified protein
Conditions: pH 8.0; 37.0 °C

CysA2 (Mycobacterium tuberculosis H37Rv)
Km: 2970 ± 50 µM
